Data as given in FireProtDB (doi:10.1021/bi00416a052).

B1: Ribonuclease HI, P0A7Y4 (parent)
chain: MLKQVEIFTDGSCLGNPGPGGYGAILRYRGREKTFSAGYTRTTNNRMELMAAIVALEALKEHCEVILSTDSQYVRQGITQWIHNWKKRGWKTADKKPVKNVDLWQRLDAALGQHQIKWEWVKGHAGHPENERCDELARAAAMNPTLEDTGYQVEV

Variants of: B1
Details: Escherichia coli (strain K12), Thermal, CD, NaCl 0.1 M, reversible: yes, structure 2RN2, whole UniProt chain shown
[1] = pH 3, 49.8 °C, glycine-HCl 10 mM
[2] = pH 5.5, 52 °C, Sodium acetate 20 mM

Variant: V74I
- ddG of mutation (higher = less stable) [1]: -0.7 kcal/mol
- Tm (pH 3, glycine-HCl 10 mM): 52.2 °C
- change of melting temperature, mutant - wild type (higher = more stable) (pH 3, glycine-HCl 10 mM): 2.4 °C
- ddG of mutation (higher = less stable) [2]: -0.6 kcal/mol
- Tm (pH 5.5, Sodium acetate 20 mM): 54.1 °C
- change of melting temperature, mutant - wild type (higher = more stable) (pH 5.5, Sodium acetate 20 mM): 2.1 °C

Variant: V74A
- ddG of mutation (higher = less stable) [1]: 2.2 kcal/mol
- Tm (pH 3, glycine-HCl 10 mM): 42.2 °C
- change of melting temperature, mutant - wild type (higher = more stable) (pH 3, glycine-HCl 10 mM): -7.6 °C
- ddG of mutation (higher = less stable) [2]: 3.4 kcal/mol
- Tm (pH 5.5, Sodium acetate 20 mM): 39.3 °C
- change of melting temperature, mutant - wild type (higher = more stable) (pH 5.5, Sodium acetate 20 mM): -12.7 °C

Variant: V74L
- ddG of mutation (higher = less stable) [1]: -1.1 kcal/mol
- Tm (pH 3, glycine-HCl 10 mM): 53.5 °C
- change of melting temperature, mutant - wild type (higher = more stable) (pH 3, glycine-HCl 10 mM): 3.7 °C
- ddG of mutation (higher = less stable) [2]: -0.9 kcal/mol
- Tm (pH 5.5, Sodium acetate 20 mM): 55.3 °C
- change of melting temperature, mutant - wild type (higher = more stable) (pH 5.5, Sodium acetate 20 mM): 3.3 °C
